For one series, the system named is SARS-COV-2 delta variant. It is filed as cell-based. The note with it: slncRNA alone, low concentrations (potentially a non-specific effect at higher concentrations).
Series [1] has as its system SARS-COV-2 omicron variant. It is filed as cell-based. The note with it: slncRNA alone, low concentrations (potentially a non-specific effect at higher concentrations).

B1: PCP-14×/MCP-15×: class II slncRNA with fourteen PCP binding sites spaced by hairpins that do not bind PCP (SEQ ID NO: 28) (nucleic acid)
chain: GAGAAACGTTTCGACATTATATGGAATGCGAAAGTGGAACGTAATGGACATGAAGACGATTACGCTTCACACGGAGGATGCGGGAAACATGAAGATCACCCATGTTCGCTTAACCATGGATAGGGATCACCCATGTTGCGGTGGTGCGTCAACCAGAGATTTCATATGGGAAACTCTGGGACACGCTGTATTTATACATGAGGATCACCATGTGTGCTTAAATATGGGTAAGTTGACCATTAGGCAACTGTAAGATGCTCCGGTTAATTCCAGTTTATATGGAAACGGAATTGATGTACCGTTGAGCAAGAACACGATTACGGTTCTTCGATTAGATATGGTTTAAACGACAATATATGGATTGCGTTTTGGGGCACGCCGTCTGGAGAAGACCATTAGGCTTCTTTACTGCGACCGCAATAAAAGGAGATTATATGAAATCCCTTTGCGCGCAACCGGGTAGAAGATCACCATTAGGGATCTGTAACTCACGGCGCTATTACGAGTCAATATGGTGACCGTAAAGCTAGGGCATGTGCCAGAAGAGCATTAGCCTTCTCCTTGGTGGGGAAGCGATAAGCACATTATAAGGAATGGCTTAAAGTGGTGCGGCGGGGGACTTGACCATTAGGCAAGTGTGCTAGACCCTGGTCTTTTCGAGAAAATATGGTTTCCGAAAGAACTATACGAAGTGACATGCGAGGATTACCCGCATATGGTGCAAATGGGAGAATTGGAGTAAATATGGTTACCCAATAGGCTAGAGCATGACGGCAGTGAGAATTATCCACTGGTTAGCGGGTTACCGAGATTGCACATTATATGGAATGGCAATTGATTCATGCCGGTCGTTTGTGAGGAGTACCCACAAAATGGGAGGGTGCTATATAACCAGGTTATATGCAACCGGTTAGGCCGTTGTGTTAGTTTAGTTCAGCATTAGCGAACTGTGCAAGACCCGGTGGCTAAGGAGTTTATATGGAAACCCTTAGCCCTCGAGCATGCTAACATGAGGATTACCCATGTGATGGGTTTGAAACGTGCAATTATTTGATATGGCAAAAATTGGGTAGGGCATGGCTGCAGCGTGAGAATTATCCACGCTAGGCTAGAGCATGGCGGTATTGAGTTCGGGTTTGAGATGACCATTAGGCATCTGTGCTAGAGCATGCGAAAACGACATAATATGGTATGCGTTTTGGGGTGCTAGTATACCACATGATGAGCACACATGTATGGGTGGGAGGTAGAGGGATTCTCGCGAGAAGA
B1: the antiviral response entry (with SARS-COV-2 delta variant; in series [1]) was “no substantial antiviral response” each time.

The record behind these values is US20240218024A1, “METHODS AND COMPOSITIONS FOR TREATMENT OF VIRAL INFECTION” (TECHNION RESEARCH & DEVELOPMENT FOUNDATION LIMITED, priority 2021, published 2024).
